Measured values as given in article PMC13570301.
pKd: −log10 of the molar value.

Assays:
[1] = target: CHIP Y230Cfs∗9, recombinant, C-terminal His tag (human) (UniProt Q9UNE7); assay: mass photometry; Refeyn OneMP; CHIP at 50 nM final (a subset also at 20 nM and 100 nM) in 20 mM HEPES pH 8.0, 200 mM NaCl; self-association, oligomeric states by mass
[2] = target: UBE2D2 (1–147), from the plasmid pHis//2 Hs UBE2D2 (1–147) (human) (UniProt P62837); assay: BLI; conditions: enzyme
Sequence of UBE2D2 (1–147), from the plasmid pHis//2 Hs UBE2D2 (1–147) (human) (P62837 whole entry): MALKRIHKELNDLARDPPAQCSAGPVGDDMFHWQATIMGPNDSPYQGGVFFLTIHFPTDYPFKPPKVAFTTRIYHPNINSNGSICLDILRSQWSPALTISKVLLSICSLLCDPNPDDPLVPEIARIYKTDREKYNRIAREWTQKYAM

Sequence of CHIP Y230Cfs∗9, recombinant, C-terminal His tag (Q9UNE7 whole entry): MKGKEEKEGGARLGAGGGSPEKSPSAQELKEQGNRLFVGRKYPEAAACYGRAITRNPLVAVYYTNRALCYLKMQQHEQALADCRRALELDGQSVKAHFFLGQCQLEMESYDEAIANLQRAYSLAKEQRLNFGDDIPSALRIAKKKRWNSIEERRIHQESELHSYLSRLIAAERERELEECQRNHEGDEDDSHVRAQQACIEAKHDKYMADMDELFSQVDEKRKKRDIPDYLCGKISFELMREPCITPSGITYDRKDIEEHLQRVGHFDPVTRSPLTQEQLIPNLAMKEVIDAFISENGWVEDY
Sequence of CHIP L275Dfs∗16, recombinant, C-terminal His tag (Q9UNE7 whole entry): as above

Substance | percent of the protein as dimer [1] [%] | stoichiometry N [1] | pKd [2]
CHIP Y230Cfs∗9, recombinant, C-terminal His tag (from UniProt Q9UNE7-1 1-303) (enzyme) | 80 | 2 | –
CHIP L275Dfs∗16, recombinant, C-terminal His tag (from UniProt Q9UNE7-1 1-303) | – | – | 3.51
